target: recombinant soluble full-length human TDP-43 (transactive response DNA binding protein-43) (Homo sapiens (Human)., UniProt Q13148); experiment: SPR
Sequence (Q13148 whole entry): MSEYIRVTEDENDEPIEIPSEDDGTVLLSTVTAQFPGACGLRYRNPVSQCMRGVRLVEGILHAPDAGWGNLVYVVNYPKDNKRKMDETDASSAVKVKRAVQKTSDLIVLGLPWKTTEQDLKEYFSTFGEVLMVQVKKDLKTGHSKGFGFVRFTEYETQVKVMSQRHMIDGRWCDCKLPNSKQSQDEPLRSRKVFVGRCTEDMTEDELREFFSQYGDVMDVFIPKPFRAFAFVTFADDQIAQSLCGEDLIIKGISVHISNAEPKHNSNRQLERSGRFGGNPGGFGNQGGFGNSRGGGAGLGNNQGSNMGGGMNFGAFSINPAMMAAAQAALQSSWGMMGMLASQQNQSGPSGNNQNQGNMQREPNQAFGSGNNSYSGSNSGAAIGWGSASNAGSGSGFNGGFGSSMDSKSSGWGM

Row | Binder | Kd
1 | ACI-5891 mouse IgG2a mAb produced with the bicistronic IRES-LC/HC expression cassette (antibody, V domains shown) VH: EVQLQQSGPELVKPGASVKISCKTSGFTFTEYSMHWVKQSHGKSLEWIGGINPNNGGTSYNQKFKGKATLTVDKSSSTAYMELRSLTSEDSAVYYCARESWGQGTTLTVSS VL: not shown | 0.09 nM
2 | anti-human TDP-43 mAb ACI-5891, mouse IgG2a, conventionally produced reference mAb (antibody, V domains shown) VH: EVQLQQSGPELVKPGASVKISCKTSGFTFTEYSMHWVKQSHGKSLEWIGGINPNNGGTSYNQKFKGKATLTVDKSSSTAYMELRSLTSEDSAVYYCARESWGQGTTLTVSS VL: not shown | 0.092 nM
3 | ACI-5891 human IgG1 chimeric reference mAb, conventionally produced (antibody, V domains shown) VH: EVQLQQSGPELVKPGASVKISCKTSGFTFTEYSMHWVKQSHGKSLEWIGGINPNNGGTSYNQKFKGKATLTVDKSSSTAYMELRSLTSEDSAVYYCARESWGQGTTLTVSS VL: not shown | 0.087 nM
4 | ACI-5891 human IgG1 chimeric mAb produced with the bicistronic IRES-LC/HC expression cassette (antibody, V domains shown) VH: EVQLQQSGPELVKPGASVKISCKTSGFTFTEYSMHWVKQSHGKSLEWIGGINPNNGGTSYNQKFKGKATLTVDKSSSTAYMELRSLTSEDSAVYYCARESWGQGTTLTVSS VL: not shown | 0.092 nM

Reference: paper PMC12432895 (Molecular Therapy, 2025)
